# Measurements from patent US20090317396A1 (AJOU UNIVERSITY INDUSTRY ACADEMIC COOPERATION FOUNDATION, published 2009).
# T1: CD95 (UniProt P25445 26-173)
# T1 sequence (looked up): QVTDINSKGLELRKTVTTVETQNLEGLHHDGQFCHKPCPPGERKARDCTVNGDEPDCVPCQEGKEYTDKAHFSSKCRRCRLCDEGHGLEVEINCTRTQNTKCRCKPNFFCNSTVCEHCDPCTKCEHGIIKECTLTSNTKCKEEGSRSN
# T2: TNFR2 (UniProt P20333 23-257)
# T2 sequence (looked up): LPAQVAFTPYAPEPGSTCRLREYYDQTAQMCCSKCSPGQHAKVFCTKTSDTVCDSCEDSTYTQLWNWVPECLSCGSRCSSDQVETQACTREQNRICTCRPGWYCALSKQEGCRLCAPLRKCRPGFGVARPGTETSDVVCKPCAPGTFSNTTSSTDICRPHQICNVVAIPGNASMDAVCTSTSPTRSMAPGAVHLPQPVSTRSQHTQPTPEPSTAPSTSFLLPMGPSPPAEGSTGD
# T3: DcR2 (UniProt Q9UBN6 56-211)
# T3 construct: also called death decoy receptor 2
# T3 sequence (looked up): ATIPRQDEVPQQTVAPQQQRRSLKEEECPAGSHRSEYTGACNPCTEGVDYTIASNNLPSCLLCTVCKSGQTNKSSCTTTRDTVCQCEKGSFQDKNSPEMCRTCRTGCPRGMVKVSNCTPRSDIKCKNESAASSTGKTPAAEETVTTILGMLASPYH
# T4: TNFR1 (UniProt P19438 30-211, limits assumed)
# T4 sequence (looked up): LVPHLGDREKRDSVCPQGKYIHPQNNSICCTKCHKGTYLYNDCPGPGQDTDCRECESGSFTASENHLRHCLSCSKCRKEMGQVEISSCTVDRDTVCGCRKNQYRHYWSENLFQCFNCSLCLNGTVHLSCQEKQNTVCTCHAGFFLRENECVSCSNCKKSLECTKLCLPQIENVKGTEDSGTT
# T5: death decoy receptor 1 (DcR1) (UniProt O14798 26-221, limits assumed)
# T5 sequence (looked up): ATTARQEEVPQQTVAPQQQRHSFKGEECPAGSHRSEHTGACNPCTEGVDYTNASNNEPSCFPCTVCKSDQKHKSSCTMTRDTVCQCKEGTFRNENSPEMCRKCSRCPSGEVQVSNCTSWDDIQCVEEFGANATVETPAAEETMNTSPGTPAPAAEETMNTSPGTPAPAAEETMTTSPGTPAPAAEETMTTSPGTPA
# B1: HW6 anti-DR5 scFv antibody (scFv)
# scFv: QVQLQQSGPGRVQPSQTLSLTCAISGDSVSNNNAAWYWIRQSPSRGLEWLGRTYYRSKWYNDYAVSVKSRITISPDTSKNQFSLQLNSVTPEDTAVYYCARRGDGNSYFDYWGQGTLVTVSSGILRWGRFGWRGLGRGWLEIVLTQSPGTLSLSPGERATLSCRASQSVSSGYVSWYRQKPGQAPRLLIYGASTRATGIPDRFSGSGSGTDFTLTISRLEPEDFAVYYCHQYGSSPNTYGQGTKVGIK
# notes: Human scFv expressed in E. coli periplasm, purified, monomeric; not shown: C-terminal Flag tag from vector pKJ1; C-terminal 6xHis tag from vector pKJ1
# B2: HW1 anti-DR5 scFv antibody (scFv)
# scFv: QVQLQQSGPGLVKPSQTLSLTCAISGDSVSSTTVAWDWIRQSPSRGLEWLGRTYYRSKWYNEYAVSVKSRITINVDTSKNQISLQLNSVTPEDTAVYYCAREPDAGRGAFDIWGQGTTVTSPLRWGRFGWRGLGRGWLRSPVTQSPGTLSLSPGERATLSCRASQSVSSSHLAWYQQKPGQAPRLLIYGASSRATGIPDRFSGSGSGTDFTLTISSLEPEDFAVYYCQQRSNWPPRAVFGQGTRLEIK
# notes: Human scFv expressed in E. coli periplasm (PelB signal removed on export), purified, monomeric; not shown: C-terminal Flag tag from vector pKJ1; C-terminal 6xHis tag from vector pKJ1
# Columns and labels:
# death receptor 4 (DR4) [1] = molecular target: T6, death receptor 4 (DR4) (UniProt O00220 24-239, limits assumed); assay: SPR (Biacore 2000): DR4 immobilised on a CM5 chip, HW6 injected
# T6 construct: also called TRAIL receptor 1
# Description: (§1) The binding affinity of the anti-DR5 scFv antibody to DR5, and the cross-reactivities of the antibody with other antigens, DcR1, DcR2, DR4, TNFR1, TNFR2 and CD95 were determined by Biacore 2000 SPR (surface plasmon resonance) biosensor (Pharmacia, Sweden), respectively.
# CD95 [2] = molecular target: T1, CD95; assay: SPR (Biacore 2000): CD95 immobilised on a CM5 chip, HW6 injected
# Description: as §1
# death receptor 5 (DR5) = molecular target: T7, death receptor 5 (DR5) (UniProt O14763 52-182, limits assumed); assay: SPR (Biacore 2000), DR5 immobilised on CM5 chip, scFv injected, 25° C.
# T7 construct: Purified antigen immobilised on CM5 chip or coated on ELISA plates; also called TRAIL receptor 2; TRICK2
# Description: as §1
# TNFR2 = molecular target: T2, TNFR2; assay: SPR (Biacore 2000), antigen immobilised on CM5 chip
# Description: as §1
# DcR2 = molecular target: T3, DcR2; assay: as above
# Description: as §1
# TNFR1 [3] = molecular target: T4, TNFR1; assay: SPR (Biacore 2000): TNFR1 immobilised on a CM5 chip, HW6 injected
# Description: as §1
# [4] = molecular target: T5, death decoy receptor 1 (DcR1); assay: SPR (Biacore 2000): DcR1 immobilised on a CM5 chip, HW6 injected
# Description: as §1
# TNFR1 [5] = molecular target: T4, TNFR1; assay: SPR (Biacore 2000): TNFR1 immobilised on a CM5 chip, HW1 injected
# Description: as §1
# death receptor 4 (DR4) [6] = molecular target: T6, death receptor 4 (DR4); assay: SPR (Biacore 2000), antigen immobilised on CM5 chip
# Description: as §1
# CD95 [7] = molecular target: T1, CD95; assay: SPR (Biacore 2000): CD95 immobilised on a CM5 chip, HW1 injected
# Description: as §1
# [8] = molecular target: T5, death decoy receptor 1 (DcR1); assay: SPR (Biacore 2000): DcR1 immobilised on a CM5 chip, HW1 injected
# Description: as §1
# T7 sequence (O14763 52-182 limits assumed): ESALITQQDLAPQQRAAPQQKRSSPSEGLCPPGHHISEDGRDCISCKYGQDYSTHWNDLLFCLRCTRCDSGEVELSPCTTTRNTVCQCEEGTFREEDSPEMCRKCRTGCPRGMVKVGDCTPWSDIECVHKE
# T6 sequence (O00220 24-239 limits assumed): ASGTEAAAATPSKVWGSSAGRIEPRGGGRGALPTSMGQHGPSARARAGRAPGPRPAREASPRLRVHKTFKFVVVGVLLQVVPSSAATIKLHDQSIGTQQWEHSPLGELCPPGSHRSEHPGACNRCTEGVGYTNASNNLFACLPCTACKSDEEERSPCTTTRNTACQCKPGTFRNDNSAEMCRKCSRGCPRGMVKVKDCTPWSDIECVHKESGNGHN
Binder,binding result (death receptor 4 (DR4) [1]),binding result (CD95 [2]),Kd (death receptor 5 (DR5)) [nM],koff (death receptor 5 (DR5)) [s⁻¹],kon (death receptor 5 (DR5)) [M⁻¹ s⁻¹],binding result (TNFR2),binding result (DcR2),binding result (TNFR1 [3]),binding result [4],binding result (TNFR1 [5]),binding result (death receptor 4 (DR4) [6]),binding result (CD95 [7]),binding result [8]
B1,no binding,no binding,54.5,0.00688,126000,no binding (tested: up to 10 µM),no binding (tested: up to 10 µM),no binding,no binding,–,–,–,–
B2,–,–,202,0.00471,23300,no binding (tested: up to 10 µM),no binding (tested: up to 10 µM),–,–,no binding,no binding (tested: up to 10 µM),no binding,no binding
